According to paper doi:10.1101/2020.01.12.903617, “The peptide sensor motif stabilizes the outward-facing conformation of TmrAB” (bioRxiv, 2020):
No end group written: not given here. fluorescein = fluorescein label attached to the Cys side chain

Assays:
TmrAB G131A^TmrA = target: T1, TmrAB G131A^TmrA (Thermus thermophilus, UniProt Q72J05 1-600; Q72J04 1-578, G131A); assay: fluorescence polarisation; 1.7 uM TmrAB with 50 nM RRY(C^Fluorescein)KSTEL in SEC buffer (20 mM HEPES, 150 mM NaCl, pH 7, 0.05% ß-DDM), 15 minutes on ice, in the absence or presence of 5 mM ATP and 10 mM MgCl2; read at 25°C (the results say 4°C); signal normalized to WT without ATP; details: both partners purified
T1 construct: TmrA, Thermus thermophilus, the chain of TmrAB with the canonical Walker B motif; TmrB, Thermus thermophilus, the chain of TmrAB with the non-canonical Walker B motif; also called G131A^TmrA variant; source: cultured at room temperature for 16 hours after induction
T1 sequence 1: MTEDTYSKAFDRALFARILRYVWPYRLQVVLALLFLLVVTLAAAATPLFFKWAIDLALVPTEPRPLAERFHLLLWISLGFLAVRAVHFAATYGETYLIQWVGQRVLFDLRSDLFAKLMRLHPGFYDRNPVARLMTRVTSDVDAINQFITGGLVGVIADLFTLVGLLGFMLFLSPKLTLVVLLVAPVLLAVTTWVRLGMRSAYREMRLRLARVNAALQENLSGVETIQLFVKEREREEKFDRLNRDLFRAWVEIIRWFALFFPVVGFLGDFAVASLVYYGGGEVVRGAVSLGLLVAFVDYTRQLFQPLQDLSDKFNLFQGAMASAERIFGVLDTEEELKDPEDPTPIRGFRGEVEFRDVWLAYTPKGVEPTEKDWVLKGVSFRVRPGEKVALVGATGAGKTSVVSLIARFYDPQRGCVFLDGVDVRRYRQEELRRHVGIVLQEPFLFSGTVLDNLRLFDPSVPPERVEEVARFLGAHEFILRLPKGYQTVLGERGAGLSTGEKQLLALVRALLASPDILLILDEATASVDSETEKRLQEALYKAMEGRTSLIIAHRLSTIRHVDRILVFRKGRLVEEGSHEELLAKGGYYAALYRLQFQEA
T1 sequence 2: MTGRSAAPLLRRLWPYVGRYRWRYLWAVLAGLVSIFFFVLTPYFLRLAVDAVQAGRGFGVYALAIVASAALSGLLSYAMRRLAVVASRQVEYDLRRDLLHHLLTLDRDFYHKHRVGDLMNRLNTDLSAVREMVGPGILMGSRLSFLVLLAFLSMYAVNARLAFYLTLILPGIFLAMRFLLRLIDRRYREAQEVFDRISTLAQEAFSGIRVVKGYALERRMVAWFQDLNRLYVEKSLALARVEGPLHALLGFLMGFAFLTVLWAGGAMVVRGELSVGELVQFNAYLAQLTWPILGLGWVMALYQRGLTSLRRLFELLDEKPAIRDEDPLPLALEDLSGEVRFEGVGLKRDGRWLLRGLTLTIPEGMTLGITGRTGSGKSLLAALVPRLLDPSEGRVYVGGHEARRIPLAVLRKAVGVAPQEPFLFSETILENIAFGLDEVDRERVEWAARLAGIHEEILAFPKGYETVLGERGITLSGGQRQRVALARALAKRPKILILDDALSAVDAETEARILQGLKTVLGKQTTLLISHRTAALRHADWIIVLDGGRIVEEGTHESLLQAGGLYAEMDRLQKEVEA

TmrAB R136A^TmrA = target: T2, TmrAB R136A^TmrA (Thermus thermophilus, UniProt Q72J05 1-600; Q72J04 1-578, R136A); assay: as above; details: both partners purified
T2 construct: TmrA, Thermus thermophilus, the chain of TmrAB with the canonical Walker B motif; TmrB, Thermus thermophilus, the chain of TmrAB with the non-canonical Walker B motif
T2 sequence 1: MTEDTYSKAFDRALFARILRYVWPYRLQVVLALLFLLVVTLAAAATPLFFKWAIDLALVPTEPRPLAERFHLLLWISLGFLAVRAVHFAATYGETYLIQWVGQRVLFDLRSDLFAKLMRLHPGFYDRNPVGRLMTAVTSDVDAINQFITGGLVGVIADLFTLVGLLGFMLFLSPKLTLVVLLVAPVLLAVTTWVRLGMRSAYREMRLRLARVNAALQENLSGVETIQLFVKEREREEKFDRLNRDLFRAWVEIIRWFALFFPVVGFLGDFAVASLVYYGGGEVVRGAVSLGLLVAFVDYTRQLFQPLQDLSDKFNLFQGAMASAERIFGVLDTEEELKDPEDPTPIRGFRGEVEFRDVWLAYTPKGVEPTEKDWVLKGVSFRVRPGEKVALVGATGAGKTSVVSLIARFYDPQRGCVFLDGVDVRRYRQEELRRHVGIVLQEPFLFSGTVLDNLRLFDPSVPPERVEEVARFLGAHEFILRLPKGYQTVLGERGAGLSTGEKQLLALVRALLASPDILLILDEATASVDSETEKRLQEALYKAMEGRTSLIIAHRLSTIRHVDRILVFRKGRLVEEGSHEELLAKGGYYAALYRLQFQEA
T2 sequence 2: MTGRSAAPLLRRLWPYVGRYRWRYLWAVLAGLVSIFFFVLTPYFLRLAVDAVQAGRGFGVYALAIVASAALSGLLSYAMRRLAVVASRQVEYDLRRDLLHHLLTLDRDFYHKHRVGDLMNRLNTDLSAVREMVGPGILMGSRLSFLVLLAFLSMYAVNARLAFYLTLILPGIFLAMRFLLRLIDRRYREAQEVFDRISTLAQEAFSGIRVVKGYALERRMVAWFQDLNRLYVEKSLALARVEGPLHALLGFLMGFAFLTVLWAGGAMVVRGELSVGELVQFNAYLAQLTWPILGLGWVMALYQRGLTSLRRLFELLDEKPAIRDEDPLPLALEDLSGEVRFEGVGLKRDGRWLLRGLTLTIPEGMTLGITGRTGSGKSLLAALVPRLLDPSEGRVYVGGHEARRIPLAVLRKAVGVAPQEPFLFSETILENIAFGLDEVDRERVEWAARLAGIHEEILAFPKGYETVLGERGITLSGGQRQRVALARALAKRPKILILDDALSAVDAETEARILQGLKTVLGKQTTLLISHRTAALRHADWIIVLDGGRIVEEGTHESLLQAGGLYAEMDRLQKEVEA

B1: fluorescent transport substrate peptide RRY(C^Fluorescein)KSTEL (peptide)
peptide: RRYC(fluorescein)KSTEL
notes: fluorescein-labelled transport substrate peptide of TmrAB; also called fluorescently-labeled peptide substrate; peptide substrate; source: bought: Genscript
Q: Does B1 bind (TmrAB G131A^TmrA)?
A: Result: binds

Q: Does B1 bind (TmrAB R136A^TmrA)?
A: Result: binds
